Experiments:
[1] = test system: ATGL; conditions: cited from earlier work
Source text: Extensive research on the physiological role of ATGL has identified complex regulatory mechanisms for its activity on the transcriptional and post-translational level ([12], [13]). Direct protein-protein interaction of ATGL with the protein comparative gene identification 58 (CGI-58) increases ATGL activity up to 20-fold ([14]). Inhibition of ATGL due to direct interaction with the small, 103-amino acid protein G0/G1 switch gene 2 (G0S2) was discovered in 2010 and confirmed using human and murine proteins ([15][–][21]). The highest G0S2 expression is found in adipose tissues, but it is also pr ... || Activation of ATGL by CGI-58 is considered as fasting response upon β-adrenergic stimulation and phosphorylation of PKA ([12]). Recent studies have strengthened the role of G0S2 as the so-called master regulator of basal and stimulated lipolysis ([27]). mRNA levels of G0S2 respond strongly to hormonal stimuli, yet the dose-dependent inhibition of ATGL by G0S2 itself is reported to be independent of phosphorylation events ([18], [20], [21], [28], [29]). Thus, regulation of the expression levels of G0S2, and consequently the protein concentration, resembles a potent mean to regulate lipid mobili ... || Next, we investigated the specificity of the peptide hGW2052. ATGL and HSL together account for more than 95% of intracellular TG hydrolase activity in white adipose tissue (WAT) ([48]). […]

[2] = test system: mATGL; experiment: TG hydrolase activity, E. coli expressed mATGL, CGI-58 activated, hG0S2 truncations (Fig. 1C-E); format: biochemical, mouse; conditions: mATGL E. coli extract (50 μg), 2.5 μg purified mCGI-58, 30 μg lysate of E. coli expressing hG0S2 variant, [3H]triolein, triplicates
Procedure: Protein concentrations were determined as described below.
FIGURE 1. Minimal sequence requirements of human G0S2 for ATGL inhibition. A, graphical representation of full-length and shortened versions of hG0S2, those capable of inhibiting ATGL activity are illustrated in black. The largely hydrophobic sequence stretch from Val-28 to Met-42 is depicted in light gray. B–E, activity assays were performed in the presence of CGI-58 as indicated by an asterisk (ATGL*). G0S2 and variants thereof were expressed in E. coli and added as cell lysates. Overexpressed mATGL from E. coli lysates was used for all assays with the exception of the assay shown in B. B, inhibition of TG hydrolase activity of mATGL containing COS-7 cell extracts by WT and C-terminally truncated hG0S2 variants. C, inhibition of TG hydrolase activity of mATGL by WT and C-terminally truncated hG0S2 variants. D, inhibition of TG hydrolase activity of mATGL by WT hG0S2 and variants with N-terminal deletions. E, effect of different N- and C-terminal truncations in hG0S2 on mATGL activity. The fusion tag smt3 is shown as control.

[3] = test system: ATGL; conditions: cited from earlier work; remark: listed apart in the source
Source text: Activation of ATGL by CGI-58 is considered as fasting response upon β-adrenergic stimulation and phosphorylation of PKA ([12]). Recent studies have strengthened the role of G0S2 as the so-called master regulator of basal and stimulated lipolysis ([27]). mRNA levels of G0S2 respond strongly to hormonal stimuli, yet the dose-dependent inhibition of ATGL by G0S2 itself is reported to be independent of phosphorylation events ([18], [20], [21], [28], [29]). Thus, regulation of the expression levels of G0S2, and consequently the protein concentration, resembles a potent mean to regulate lipid mobili ... || Structural knowledge on ATGL is very limited. It is predicted to exert lipolytic activity via a catalytic dyad that resides in the patatin domain within the N-terminal half of the lipase ([7], [50]). […] In contrast, Atglis ...

[4] = molecular target: mATGL (Mus musculus, UniProt Q8BJ56); experiment: TG hydrolase activity of CGI-58-stimulated mATGL (mATGL*) expressed in E. coli; conditions: read-out: half-maximal inhibitory concentration (IC50), CGI-58-stimulated ATGL; mATGL from E. coli (25 μg lysate protein) with 2.5 μg mCGI-58; [3H]triolein substrate; triplicates; Fig. 2E (hGW2052), 2F (WT hG0S2)
mATGL (Mus musculus, UniProt Q8BJ56), sequence (Q8BJ56 whole entry): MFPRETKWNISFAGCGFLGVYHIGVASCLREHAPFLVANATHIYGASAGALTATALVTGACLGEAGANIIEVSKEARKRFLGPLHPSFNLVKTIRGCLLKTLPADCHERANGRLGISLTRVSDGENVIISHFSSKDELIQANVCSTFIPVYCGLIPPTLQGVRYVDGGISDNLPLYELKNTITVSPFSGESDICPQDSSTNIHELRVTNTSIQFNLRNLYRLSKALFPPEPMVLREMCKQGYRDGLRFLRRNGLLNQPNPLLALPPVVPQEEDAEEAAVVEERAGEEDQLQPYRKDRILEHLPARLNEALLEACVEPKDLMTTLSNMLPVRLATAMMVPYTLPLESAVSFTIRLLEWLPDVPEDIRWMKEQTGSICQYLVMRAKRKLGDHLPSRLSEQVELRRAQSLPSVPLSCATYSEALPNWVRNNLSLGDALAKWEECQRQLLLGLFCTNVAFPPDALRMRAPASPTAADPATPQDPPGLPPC
mATGL (Mus musculus, UniProt Q8BJ56), sequence (Q9DBL9 whole entry partner): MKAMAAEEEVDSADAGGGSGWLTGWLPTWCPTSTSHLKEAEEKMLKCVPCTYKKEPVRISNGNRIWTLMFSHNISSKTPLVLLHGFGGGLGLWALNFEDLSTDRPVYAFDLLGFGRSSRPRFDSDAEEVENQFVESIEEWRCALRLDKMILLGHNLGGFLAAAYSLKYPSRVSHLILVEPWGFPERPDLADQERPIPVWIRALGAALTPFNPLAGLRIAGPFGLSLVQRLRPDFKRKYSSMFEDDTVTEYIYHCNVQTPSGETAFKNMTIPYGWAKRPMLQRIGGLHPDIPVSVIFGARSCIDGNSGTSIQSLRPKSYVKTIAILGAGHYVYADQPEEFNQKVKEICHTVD
Procedure: The peptides were dissolved in 100% DMSO, and concentrations were determined via the absorbance at 280 nm. The final DMSO concentration in the activity assay was ≤1%. The control peptide was prepared the same way.
TG hydrolase activity assay was performed as described ([45]). To screen for the inhibitory capacity of various hG0S2 truncations, 30 μg of protein of cell lysates were incubated with the [^3H]triolein substrate together with 50 μg of cell extract of Strep-mATGL (or COS-7-mATGL) and 2.5 μg of purified mCGI-58. As a control, lysates of the His6-Smt tag were incubated under the same conditions. […] TG substrate was prepared with 1.67 mM triolein, 10 μCi/ml [9,10-^3H]triolein (PerkinElmer Life Sciences), and 190 μM phosphatidylcholine/phosphatidylinositol (3:1) (Sigma) and diluted to the respective concentrations after sonication. Assays with CGI-58 co-activated ATGL were performed on a smaller scale. […] Lysates using LacZ-expressing cells were used as controls. The reaction was terminated by adding 650 μl of methanol/chloroform/heptane (10:9:7) and 200 μl of 100 mM potassium carbonate buffer, pH 10.5 (adjusted with boric acid). The radioactivity in 200 μl of the upper phase (450 μl in total) was determined by liquid scintillation counting.

B1: CGI-58: comparative gene identification 58, protein co-activator of ATGL (protein, UniProt Q8WTS1 2-349, looked up)
1-acylglycerol-3-phosphate …: AAEEEEVDSADTGERSGWLTGWLPTWCPTSISHLKEAEEKMLKCVPCTYKKEPVRISNGNKIWTLKFSHNISNKTPLVLLHGFGGGLGLWALNFGDLCTNRPVYAFDLLGFGRSSRPRFDSDAEEVENQFVESIEEWRCALGLDKMILLGHNLGGFLAAAYSLKYPSRVNHLILVEPWGFPERPDLADQDRPIPVWIRALGAALTPFNPLAGLRIAGPFGLSLVQRLRPDFKRKYSSMFEDDTVTEYIYHCNVQTPSGETAFKNMTIPYGWAKRPMLQRIGKMHPDIPVSVIFGARSCIDGNSGTSIQSLRPHSYVKTIAILGAGHYVYADQPEEFNQKVKEICDTVD
In the case of B1, the “increase of ATGL activity” value ([1]; direct protein-protein interaction with ATGL, ref [14]) is given as “up to 20 fold”.

B2: hG0S2_27–103: N-terminally truncated hG0S2 until residue Tyr-27 (protein, UniProt P27469 27-103, looked up, fragment)
chain: YVLGSVLALFGVVLGLMETVCSPFTAARRLRDQEAAVAELQAALERQALQKQALQEKGKQQDTVLGGRALSNRQHAS
For B2, the “inhibition of TG hydrolase activity (result in words)” value (“inhibition of TG hydrolase activity” below) [2] was “fully inhibit ATGL activity” and the “inhibition of TG hydrolase activity” value ([2]; listed as Tyr-27–Ser-103) was “fully able to inhibit ATGL”.

B3: G0S2 Met-1–Gln-73: truncated variant of G0S2 encompassing the residues Met-1–Gln-73 (protein, UniProt P27469 1-73, looked up, fragment)
chain: METVQELIPLAKEMMAQKRKGKMVKLYVLGSVLALFGVVLGLMETVCSPFTAARRLRDQEAAVAELQAALERQ
In the case of B3, the “inhibition of ATGL (in words)” value ([1]; truncated/deleted G0S2 variants, ref [20]) is listed as “inhibits the enzyme” and the “interaction with ATGL” value ([3]; ref [20]) is listed as “interacts with ATGL”.

B4: G0S2 truncated after residue Gly-30: Truncation of G0S2 after residue Gly-30 (N-terminal) (protein, UniProt P27469 30-103, looked up, fragment)
chain: GSVLALFGVVLGLMETVCSPFTAARRLRDQEAAVAELQAALERQALQKQALQEKGKQQDTVLGGRALSNRQHAS
For B4, the “inhibition of TG hydrolase activity” value [2] was “complete loss of the capacity to inhibit ATGL”.

B5: hG0S2: full-length human G0S2, 103-amino acid protein, expressed in E. coli (protein)
chain: METVQELIPLAKEMMAQKRKGKMVKLYVLGSVLALFGVVLGLMETVCSPFTAARRLRDQEAAVAELQAALERQALQKQALQEKGKQQDTVLGGRALSNRQHAS
modifications: left off: His6, N-terminal, cleaved | Smt, N-terminal, cleaved
notes: full-length human G0S2, 103-amino acid protein, expressed in E. coli
In the case of B5, the IC50 [4] is listed as 19 nM and the “site of interaction with ATGL” value ([3]; ref [15]) is listed as “interacts with the N-terminal catalytic domain of ATGL”.
